In patent US20200024322A1 (Eli Lilly, published 2020):
Changes are numbered by the printed parent chain.

T1: human GIP receptor (human, UniProt P48546 22-466)
T1 construct: whole, on cells; also called hGIPR; hGIP-R
T1 sequence (looked up): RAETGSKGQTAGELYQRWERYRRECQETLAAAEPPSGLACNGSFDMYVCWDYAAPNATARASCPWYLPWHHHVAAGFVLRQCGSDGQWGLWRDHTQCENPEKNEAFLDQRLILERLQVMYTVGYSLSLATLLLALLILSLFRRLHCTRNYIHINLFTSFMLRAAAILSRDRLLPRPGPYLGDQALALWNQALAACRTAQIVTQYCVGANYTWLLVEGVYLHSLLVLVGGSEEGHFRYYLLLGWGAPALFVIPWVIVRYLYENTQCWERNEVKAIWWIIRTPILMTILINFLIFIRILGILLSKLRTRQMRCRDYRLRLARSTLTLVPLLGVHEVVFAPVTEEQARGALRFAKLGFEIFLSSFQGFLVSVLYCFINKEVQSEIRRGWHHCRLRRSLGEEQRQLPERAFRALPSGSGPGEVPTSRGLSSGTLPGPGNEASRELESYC

B1: Example 337 (peptide)
peptide: FXEGTFTSDYSIXLDKKAQXAFIEYLIAGGPSSGAPPPS
modifications: Aib2; αMeL13; K17((2-[2-(2-Amino-ethoxy)-ethoxy]-acetyl)2-(γ-Glu)-CO-(CH2)18-CO2H); Aib20; C-terminal NH2
B2: Example 340 (peptide)
peptide: B1 peptide with F1X
modifications: D-Tyr1; Aib2; αMeL13; K17((2-[2-(2-Amino-ethoxy)-ethoxy]-acetyl)2-(γ-Glu)-CO-(CH2)18-CO2H); Aib20; C-terminal NH2
B3: Example 325 (peptide)
peptide: B1 peptide with F1Y, F6X, X13L, A28E
modifications: Aib2; αMeF(2F)6; K17((2-[2-(2-Amino-ethoxy)-ethoxy]-acetyl)2-(γ-Glu)-CO-(CH2)18-CO2H); Aib20; C-terminal NH2
B4: Example 335 (peptide)
peptide: B1 peptide with F1X, F6X, A28E
modifications: D-Tyr1; Aib2; αMeF6; αMeL13; K17((2-[2-(2-Amino-ethoxy)-ethoxy]-acetyl)2-(γ-Glu)-CO-(CH2)18-CO2H); Aib20; C-terminal NH2
B5: Example 293 (peptide)
peptide: B1 peptide with F1X, K16X, A21E, Y25X
modifications: D-Tyr1; Aib2; αMeL13; Orn16; K17((2-[2-(2-Amino-ethoxy)-ethoxy]-acetyl)2-(γ-Glu)-CO-(CH2)18-CO2H); Aib20; αMeY25; C-terminal NH2
B6: Example 329 (peptide)
peptide: B1 peptide with F1X, F6X, X13L, A28E
modifications: D-Tyr1; Aib2; αMeF6; K17((2-[2-(2-Amino-ethoxy)-ethoxy]-acetyl)2-(γ-Glu)-CO-(CH2)18-CO2H); Aib20; C-terminal NH2
B7: Example 367 (peptide)
peptide: B1 peptide with F1Y, A21E, Y25X
modifications: Aib2; αMeL13; K17((2-[2-(2-Amino-ethoxy)-ethoxy]-acetyl)2-(γ-Glu)-CO-(CH2)18-CO2H); Aib20; αMeY25; C-terminal NH2
B8: Example 336 (peptide)
peptide: B1 peptide with F1X, F6X, A28E
modifications: D-Tyr1; Aib2; αMeF(2F)6; αMeL13; K17((2-[2-(2-Amino-ethoxy)-ethoxy]-acetyl)2-(γ-Glu)-CO-(CH2)18-CO2H); Aib20; C-terminal NH2
B9: Example 358 (peptide)
peptide: B1 peptide with F1X, K16X, I23V
modifications: D-Tyr1; Aib2; αMeL13; Orn16; K17((2-[2-(2-Amino-ethoxy)-ethoxy]-acetyl)2-(γ-Glu)-CO-(CH2)18-CO2H); Aib20; C-terminal NH2
B10: Example 292 (peptide)
peptide: B1 peptide with F1X, A21E, Y25X
modifications: D-Tyr1; Aib2; αMeL13; K17((2-[2-(2-Amino-ethoxy)-ethoxy]-acetyl)2-(γ-Glu)-CO-(CH2)18-CO2H); Aib20; αMeY25; C-terminal NH2
B11: Example 334 (peptide)
peptide: B1 peptide with F1X, A28E
modifications: D-Tyr1; Aib2; αMeL13; K17((2-[2-(2-Amino-ethoxy)-ethoxy]-acetyl)2-(γ-Glu)-CO-(CH2)18-CO2H); Aib20; C-terminal NH2
B12: Example 346 (peptide)
peptide: B1 peptide with F1X, K16X
modifications: D-Tyr1; Aib2; αMeL13; Orn16; K17((2-[2-(2-Amino-ethoxy)-ethoxy]-acetyl)2-(γ-Glu)-CO-(CH2)18-CO2H); Aib20; C-terminal NH2
B13: Example 341 (peptide)
peptide: B1 peptide with F1X, K16E
modifications: D-Tyr1; Aib2; αMeL13; K17((2-[2-(2-Amino-ethoxy)-ethoxy]-acetyl)2-(γ-Glu)-CO-(CH2)18-CO2H); Aib20; C-terminal NH2
B14: Example 360 (peptide)
peptide: B1 peptide with F1X, K16X, I23V, A28E
modifications: D-Tyr1; Aib2; αMeL13; Orn16; K17((2-[2-(2-Amino-ethoxy)-ethoxy]-acetyl)2-(γ-Glu)-CO-(CH2)18-CO2H); Aib20; C-terminal NH2
B15: Example 290 (peptide)
peptide: B1 peptide with F1X, A21E
modifications: D-Tyr1; Aib2; αMeL13; K17((2-[2-(2-Amino-ethoxy)-ethoxy]-acetyl)2-(γ-Glu)-CO-(CH2)18-CO2H); Aib20; C-terminal NH2
B16: Example 339 (peptide)
peptide: B1 peptide with F1Y, A21E
modifications: Aib2; αMeL13; K17((2-[2-(2-Amino-ethoxy)-ethoxy]-acetyl)-(γ-Glu)-CO-(CH2)18-CO2H); Aib20; C-terminal NH2

Each binder was assayed against T2, human glucagon receptor (human, UniProt P47871 26-477) (assay: [125I]-Gcg competition SPA, hGcgR membranes).
T2 construct: whole, on cells; also called hGcgR; GcgR
T2 sequence (P47871 26-477): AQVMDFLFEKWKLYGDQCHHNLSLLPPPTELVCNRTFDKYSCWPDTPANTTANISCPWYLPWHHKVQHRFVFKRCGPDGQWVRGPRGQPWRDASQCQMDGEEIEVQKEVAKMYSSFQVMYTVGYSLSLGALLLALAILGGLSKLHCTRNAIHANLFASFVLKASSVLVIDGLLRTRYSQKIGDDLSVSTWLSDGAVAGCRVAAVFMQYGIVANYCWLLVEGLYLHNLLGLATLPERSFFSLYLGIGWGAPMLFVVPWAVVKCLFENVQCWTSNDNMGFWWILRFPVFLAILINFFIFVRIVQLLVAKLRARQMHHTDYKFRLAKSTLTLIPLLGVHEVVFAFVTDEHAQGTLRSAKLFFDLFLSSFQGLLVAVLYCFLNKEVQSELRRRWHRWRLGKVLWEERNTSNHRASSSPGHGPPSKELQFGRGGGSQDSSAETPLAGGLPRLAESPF
B1 gave a Ki of 335 nM.
With B2 the Ki was 250 nM.
B3 showed a Ki of 13 nM.
B4 gave a Ki of 27.1 nM.
Binder B5 has a Ki of 668 nM.
In the case of B6, the Ki is reported as 17 nM.
With B7 the Ki was 777 nM.
Binder B8 has a Ki of 17.1 nM.
In the case of B9, the Ki is reported as 915 nM.
B10 was tested, and the Ki was 595 nM.
For B11, the Ki was 192 nM.
With B12 the Ki was 310 nM.
With B13 the Ki was 39.7 nM.
For B14, the Ki was 485 nM.
B15 was tested, and the Ki was 308 nM.
In the case of B16, the Ki is reported as 873 nM.

What follows are binders tested against T1, human GIP receptor (assay: [125I]-GIP competition SPA, hGIPR membranes).
B1 showed a Ki of 0.0363 nM.
In the case of B2, the Ki is reported as 0.0507 nM.
In the case of B3, the Ki is reported as 0.0209 nM.
B4 showed a Ki of 0.0444 nM.
B5 was tested, and the Ki was 0.0775 nM.
Binder B6 has a Ki of 0.0439 nM.
In the case of B7, the Ki is reported as 0.0282 nM.
In the case of B8, the Ki is reported as 0.0277 nM.
Binder B9 has a Ki of 0.0636 nM.
For B10, the Ki was 0.0547 nM.
In the case of B11, the Ki is reported as 0.0646 nM.
Work on B12 yielded a Ki of 0.0559 nM.
Work on B13 yielded a Ki of 0.0559 nM.
Work on B14 yielded a Ki of 0.128 nM.
Work on B15 yielded a Ki of 0.0617 nM.
B16 gave a Ki of 0.0388 nM.

These binders were tested against T3, human GLP-1 receptor (human, UniProt P43220 24-463) (assay: [125I]-GLP-1 competition SPA, hGLP-1R membranes).
T3 construct: whole, on cells; also called hGLP-1R; hGLP1R
In short: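 Competition binding in 25 mM HEPES pH 7.4, 2.5 mM CaCl₂, 1 mM MgCl₂, 0.1% bacitracin, 0.003% TWEEN-20, EDTA-free protease inhibitors. IC₅₀ from four-parameter nonlinear fit; Kᵢ given as geometric mean ± SEM, n = independent replicates on different days.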
For B1, the Ki was 1.61 nM.
B2 was tested, and the Ki was 2.08 nM.
For B3, the Ki was 0.475 nM.
Work on B4 yielded a Ki of 2.54 nM.
In the case of B5, the Ki is reported as 1.64 nM.
B6 showed a Ki of 3.28 nM.
B7 gave a Ki of 0.809 nM.
For B8, the Ki was 2.44 nM.
B9 was tested, and the Ki was 1.37 nM.
With B10 the Ki was 1.19 nM.
B11 showed a Ki of 2.17 nM.
B12 gave a Ki of 1.67 nM.
With B13 the Ki was 6.49 nM.
B14 gave a Ki of 1.74 nM.
Binder B15 has a Ki of 2.44 nM.
For B16, the Ki was 2.69 nM.
